In patent US10287317B2, “Proprotein convertase subtilisin kexin type 9 (PCSK9) allosteric binding ligands to modulate serum low density lipoprotein (LDL) levels” (SRX Cardio, LLC, priority 2013, dated 2019):
Where a SMILES comes first, the peptide text is derived from it. Where no end group is shown, it is not given here. [ ]: non-standard residue; d: D form. The star is where a group is joined. Bip = N[C@@H](Cc1ccc(-c2ccccc2)cc1)C(=O)O; hCha = N[C@@H](CCC1CCCCC1)C(=O)O; hPhe = N[C@@H](CCc1ccccc1)C(=O)O; pS = N[C@@H](COP(=O)(O)O)C(=O)O; Bn = c1ccc(C*)cc1

Experiments:
PCSK9-WT protein [1] = biological target: T1, PCSK9-WT protein (Homo sapiens, UniProt Q8NBP7); assay: FACS analysis of cell surface LDLR in HuH7 cells with PCSK9-WT; type: cell-based; details: FACS, HuH7 cells; for inhibition at 100 µM: Huh-7, peptide at 100 uM, read-out: Cell Activity of Exemplified Peptides (inhibition); for modulation of LDLR cell surface level: exogenous WT PCSK9 plus peptide (FIG. 1, 100 μM)
T1 construct: V5
Description: HuH7 cells were incubated for 18 h in the absence (Cnt) or presence of 0.75 μg/ml PCSK9-WT protein alone (WT) or mixed with 100 μM of various SRX peptides. The level of LDLR at the cell surface was measured by FACS using anti human LDLR Ab and a suitable secondary Ab labeled with Alexa 647. Cell surface LDLR is reported relative to Cnt. % inhibition of activity was calculated as [SRX−WT]/[Cnt−WT]×100%.
See, FIG. 1. In that experiment, the LDLR levels of a hepatocyte culture model (HuH7 cells) were measured by fluorescence activated cell sorting (FACS) in accordance with Example III. Cell surface LDLR is reported as a percentage of Basal levels of LDLR, indicated by the Cnt_Amm.Bic, Cnt_Ac.Acid, and Cnt bars in the top graph. See, FIG. 1 (top panel). LDLR levels in the presence of exogenous PCSK9 is indicated as WT_Amm.Bic, WT-Ac.Acid, and WT, and Exogenous PCSK9 in combination with a tested peptide is indicated as SRX##. The measured LDLR levels are reported as % versus basal controls (Cnt) of the respective group. […] This was further shown a percent inhibition (% inhibition was calculated as [SRX−WT]/[Cnt−WT]×100%) where positive modulation (increase) of LDLR level is reported as positive % inhibition, and negative modulation (decrease) of LDLR level is reported as negative % inhibition. See, FIG. 1 (bottom panel).
Benjannet et al., “Effects of the prosegment and pH on the activity of PCSK9: evidence for additional processing events” J Biol Chem. 285(52): 40965-40978 (2010). The cells were then washed 3× with solution A (calcium/magnesium-free Dulbecco's PBS (Invitrogen) containing 0.5% bovine serum albumin (Sigma) and 1 g/liter glucose)). The cells were then incubated for 10 min at room temperature with 1× Versene solution (Invitrogen) followed by the addition of 5 ml of solution A. The cells were then incubated for 40 min in solution A containing a human LDLR mAb-C7 (1:100; Santa Cruz Biotechnology). Following washes, the cells were then incubated for 20 min in solution A containing a secondary antibody (Alexa Fluor 647 donkey anti-mouse antibody; 1:250; Molecular Probes).
Following suspension in PBS containing 0.2% of propidium iodide, the cells were analyzed by FACS for both propidium iodide (dead cells) and LDLR in live cells with Alexa Fluor 647 using the FACS BD LSR (BD Biosciences).

PCSK9-D374Y protein = PCSK9-D374Y protein (Homo sapiens, UniProt Q8NBP7, D374Y); assay: Cellular diI-LDL uptake in HuH7 cells with PCSK9-D374Y; type: cell-based; details: HuH7, 0.5 μg/ml PCSK9-D374Y, 100 uM peptide (FIG. 3)
Description: HuH7 cells were incubated in a 96-well plate for a total of 20 h in the absence (Cnt) or presence of 0.5 μg/ml PCSK9-D374Y protein alone (DY) or mixed with 100 uM of various SRX peptides. After 16 h, dil-LDL (5 ug/ml) was added to the incubation mixtures. After 4 h, fluorescence was measured (Ex: 520 nm/Em: 575 nm; cutoff: 550 nm). Dil-LDL uptake is calculated as RFU corrected for the number of cells.
HuH7 cells were incubated in a 96-well plate for a total of 20 h in the absence (Cnt) or presence of 0.5 μg/ml PCSK9 GOF-D374Y protein alone (DY) or mixed with increasing concentrations of various SRX peptides. After 16 h, dil-LDL (5 ug/ml) was added to the incubation mixtures. After 4 h, fluorescence was measured (Ex: 520 nm/Em: 575 nm; cutoff: 550 nm). Dil-LDL uptake is calculated as RFU corrected for the number of cells.
(§1) LDL internalization was measured by uptake of a fluorescently tagged LDL molecule (diI-LDL) in the absence of exogenous PCSK9 (Cnt), in the presence of exogenous PCSK9 (normal PCSK9=WT, D374Y mutant PCSK9=DY), or in the presence of PCSK9 and a tested peptide (indicated as SRX##, or SRX if a single peptide results is shown in a graph).
(§2) Cells, such as HepG2, HuH7, FL83B or a cell line transfected with a short-hairpin PCSK9 knockdown sequence such as HepG2/shPCSK9, HuH7/shPCSK9, FL83B/shPCSK9, were seeded at 2×10^4 cells/well in a 96-well plate and cultured at 37 degC in RPMI+10% FBS. After approximately 24 hours, the cell media was aspirated off and replaced with RPMI+3-5 mg/mL LPDS (Lipoprotein Deficient Serum, Millipore) media for further experimentation. Benjannet et al., “Effects of the prosegment and pH on the activity of PCSK9: evidence for additional processing events” J Biol Chem. 285(52): 40965-40978 (2010).
(§3) Peptide activity was assessed by culturing cells with: i) no SRX peptide/PCSK9 protein complex (control, Cnt); ii) PCSK9 protein; and iii) SRX peptide/PCSK9 complex. Various permutations of these experimental conditions were also used, including: i) the addition of wild type PCSK9 (WT); ii) a mutant PCSK9 (e.g., D374Y mutant PCSK9, DY); iii) various SRX peptides and/or PCSK9 at the same concentration and/or combinations; iv) various SRX peptides and/or PCSK9 at different concentrations and/or combinations; v) the use of different cells, as mentioned above, with or without a transfected short-hairpin sequence; vi) a pre-incubation of the PCSK9 and SRX peptide (e.g., 1, hour, 2 hours, 3 hours, 4 hours etc.); vii) various temperatures including, but not limited to, body temperature (e.g., 37° C.), supraphysiologic temperature (e.g., 39° C.); and viii) with/without agitation (e.g., shaker or gentle periodic vortexing).
(§4) Cells were cultured using one of the combinations of conditions described in the preceding paragraph for 16 hours. After 16 hours, a quantity of diI-LDL (Low density lipoprotein coupled with 1,1′-dioctadecyl-3,3,3′,3′-tetramethylindocarbocyanine perchlorate) needed to bring the media concentration to 5 ug/mL of diI-LDL was added to the culture well and cells continued to be cultured under these new conditions for 4 additional hours. At the end of the 4-hour incubation period (20 total hours of cell culture), the cellular uptake was halted with the addition of 4% formaldehyde in 10 uM Hoechst 33342 in a solvent such as deionized autoclaved water or PBS, and specimens were incubated at 20° C. for 20 minutes. Cell specimens were rinsed twice with PBS and then fluorescence measured with excitation at 360 nm and emission detected at 460 nm to measure DNA content. Cell specimens were then be incubated with a 0.1% SDS in a 0.1 N NaOH solution while being shaken for 10 minutes. Fluorescence of the diI-LDL in the specimens were quantified using excitation at 530 nm and resulting emission at 580 nm.
Fluorescence measurements of diI-LDLR were normalized to estimated cell numbers, determined from the Hoechst fluorescence. […]

PCSK9-WT protein [2] = biological target: T1, PCSK9-WT protein; assay: Cellular diI-LDL uptake in HuH7 cells with PCSK9-WT; type: cell-based; details: HuH7, 1.0 μg/ml PCSK9-WT, 100 uM peptide (FIG. 2)
Description: HuH7 cells were incubated in a 96-well plate for a total of 20 h in the absence (Cnt) or presence of 1.0 μg/ml PCSK9-WT protein alone (WT) or mixed with 100 uM of various SRX peptides. After 16 h, dil-LDL (5 ug/ml) was added to the incubation mixtures. After 4 h, fluorescence was measured (Ex: 520 nm/Em: 575 nm; cutoff: 550 nm). Dil-LDL uptake is calculated as RFU corrected for the number of cells.
as §1, §2, §3, §4
Fluorescence measurements of diI-LDLR were normalized to estimated cell numbers, determined from the Hoechst fluorescence. Data was analyzed for the different experimental conditions and reported as percentage relative fluorescence units (RFU) of the Cnt specimen. Percent inhibition was calculated as the difference in RFU of a peptide exposed specimen to the RFU of PCSK9-no peptide, divided by the RFU difference in PCSK9-no peptide to RFU of Cnt specimen, also expressed as [(SRX:RFU)−(PCSK9-no peptide:RFU)]/[(PCSK9-no peptide:RFU)−(Cnt:RFU)]×100.

[3] = biological target: PCSK9-WT protein (human proprotein convertase subtilisin/kexin type 9) (human, UniProt Q8NBP7 31-692, limits assumed); assay: cell-based or functional assay
Sequence of PCSK9-WT protein (human proprotein convertase subtilisin/kexin type 9) (Q8NBP7 31-692 limits assumed): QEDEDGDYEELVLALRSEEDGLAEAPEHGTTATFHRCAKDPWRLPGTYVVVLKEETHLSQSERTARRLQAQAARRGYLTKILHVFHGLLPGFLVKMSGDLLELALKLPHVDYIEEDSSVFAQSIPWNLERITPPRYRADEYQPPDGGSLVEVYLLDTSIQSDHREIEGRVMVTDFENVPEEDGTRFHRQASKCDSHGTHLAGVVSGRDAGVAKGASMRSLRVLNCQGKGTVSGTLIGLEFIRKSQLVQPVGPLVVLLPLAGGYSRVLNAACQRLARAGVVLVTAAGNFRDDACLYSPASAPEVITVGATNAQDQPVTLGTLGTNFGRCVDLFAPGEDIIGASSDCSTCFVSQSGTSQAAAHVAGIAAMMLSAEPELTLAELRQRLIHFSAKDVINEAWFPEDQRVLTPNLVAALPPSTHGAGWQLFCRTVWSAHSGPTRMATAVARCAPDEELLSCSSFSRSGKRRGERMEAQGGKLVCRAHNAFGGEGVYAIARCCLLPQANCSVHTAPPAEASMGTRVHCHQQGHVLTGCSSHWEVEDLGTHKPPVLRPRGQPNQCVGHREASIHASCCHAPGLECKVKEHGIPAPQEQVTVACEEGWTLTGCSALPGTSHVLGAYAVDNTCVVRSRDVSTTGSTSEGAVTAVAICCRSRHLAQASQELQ

T1 sequence (Q8NBP7 153-692): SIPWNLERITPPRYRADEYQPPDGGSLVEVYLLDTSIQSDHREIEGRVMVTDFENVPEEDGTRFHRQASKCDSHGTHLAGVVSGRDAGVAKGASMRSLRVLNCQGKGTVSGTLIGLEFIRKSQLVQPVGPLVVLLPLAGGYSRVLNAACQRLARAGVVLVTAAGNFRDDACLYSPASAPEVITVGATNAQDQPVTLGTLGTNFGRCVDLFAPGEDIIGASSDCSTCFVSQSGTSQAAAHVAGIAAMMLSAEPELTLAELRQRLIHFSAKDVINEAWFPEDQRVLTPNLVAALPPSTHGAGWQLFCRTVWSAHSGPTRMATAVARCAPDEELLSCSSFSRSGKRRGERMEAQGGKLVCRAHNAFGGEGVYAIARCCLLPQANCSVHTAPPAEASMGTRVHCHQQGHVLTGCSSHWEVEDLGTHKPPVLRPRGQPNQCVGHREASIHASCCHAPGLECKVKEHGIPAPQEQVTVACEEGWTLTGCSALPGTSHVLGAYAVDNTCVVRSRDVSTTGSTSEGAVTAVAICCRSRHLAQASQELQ
Sequence of PCSK9-D374Y protein (Q8NBP7 153-692 D374Y): as the sequence (Q8NBP7 153-692) above, with D222Y counted along it

| Molecule | modulation of LDLR cell surface level (PCSK9-WT protein [1]) | Cell Activity of Exemplified Peptides (FACS of cell surface LDLR, HuH7/shPCSK9 cells) [3] | also measured |
| --- | --- | --- | --- |
| CC(C)C[C@H](NC(=O)[C@@H](N)[C@@H](C)O)C(=O)N[C@@H](CSCc1ccccc1)C(=O)N[C@H](C(=O)N[C@@H](Cc1c[nH]c2ccccc12)C(=O)N[C@@H](CO)C(=O)N[C@@H](CO)C(=O)N[C@@H](COP(=O)(O)O)C(=O)O)[C@@H](C)O [Compound 3, Thr-Leu-Cys(CH2-Ph)-Thr-Trp-Ser-Ser-Ser(p)] (H-TLC(Bn)TWSS[pS]-OH) |  |  | inhibition at 100 µM (PCSK9-WT protein [1]): > 30% |
| CC(=O)N[C@@H](Cc1ccc(O)cc1)C(=O)N[C@@H](Cc1c[nH]c2ccccc12)C(=O)NCC(=O)O [Compound 14, Ac-Tyr-Trp-Gly] (Ac-Tyr-Trp-Gly-OH) | negatively modulate (decrease) |  | LDL internalization (dil-LDL % uptake vs Cnt) (PCSK9-D374Y protein): negatively modulated (decreased); inhibition at 100 µM (PCSK9-WT protein [1]): < -30% |
| Ac-Trp-Ala-Ser(p) (Ac-Trp-Ala-[pS]) [Compound 12] | negatively modulate (decrease) |  |  |
| Ile-Leu-Asp-Leu-Ser-Tyr (ILDLSY; not fully specified (C-terminus); printed as Ile-Leu-Asp-Leu-Ser-Tyr) [Compound 10] |  |  | LDL internalization (dil-LDL % uptake vs Cnt) (PCSK9-WT protein [2]): positively modulated (increased) |
| Thr-Leu-Gly(CH2CH2cyclohexyl)-Thr-Trp-Ser-Ser-Ser(p) (TL[hCha]TWSS[pS]) [Compound 5] | positively modulate (increase) |  |  |
| Thr-Leu-Hph-Thr-Trp-Ser-Ser-Ser(p) (TL[hPhe]TWSS[pS]) [Compound 6] |  |  | LDL internalization (dil-LDL % uptake vs Cnt) (PCSK9-D374Y protein): positively modulated (increased) |
| TL[hCha]TWSS[pS] [SRX62: Thr-Leu-Gly(CH2CH2cyclohexyl)-Thr-Trp-Ser-Ser-Ser(p)] |  | > 30 % inhibition above control at 100 uM |  |
| [Bip]-Ala-[pS]-morpholine [SRX73: Phe(4-Ph)-Ala-Ser(p)-morpholine] |  | > 30 % inhibition below control at 100 uM |  |
| Ac-Trp-Ala-[pS] [SRX69: Ac-Trp-Ala-Ser(p)] |  | > 30 % inhibition below control at 100 uM |  |
